From paper doi:10.1101/2021.11.05.467472 (bioRxiv, 2021)
Residue numbers refer to the chain shown, from its start. Names and notes keep the numbering of the source.

T1: CbbS (Rubisco small subunit) (H. neapolitanus, UniProt P45686 1-110)
T1 sequence: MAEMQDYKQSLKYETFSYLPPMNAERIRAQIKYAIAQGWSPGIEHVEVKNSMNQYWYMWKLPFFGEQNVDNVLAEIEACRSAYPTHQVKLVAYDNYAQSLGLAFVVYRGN

B1: CbbL (Rubisco large subunit) (natural protein)
chain: MAVKKYSAGVKEYRQTYWMPEYTPLDSDILACFKITPQPGVDREEAAAAVAAESSTGTWTTVWTDLLTDMDYYKGRAYRIEDVPGDDAAFYAFIAYPIDLFEEGSVVNVFTSLVGNVFGFKAVRGLRLEDVRFPLAYVKTCGGPPHGIQVERDKMNKYGRPLLGCTIKPKLGLSAKNYGRAVYECLRGGLDFTKDDENINSQPFMRWRDRFLFVQDATETAEAQTGERKGHYLNVTAPTPEEMYKRAEFAKEIGAPIIMHDYITGGFTANTGLAKWCQDNGVLLHIHRAMHAVIDRNPNHGIHFRVLTKILRLSGGDHLHTGTVVGKLEGDRASTLGWIDLLRESFIPEDRSRGIFFDQDWGSMPGVFAVASGGIHVWHMPALVNIFGDDSVLQFGGGTLGHPWGNAAGAAANRVALEACVEARNQGRDIEKEGKEILTAAAQHSPELKIAMETWKEIKFEFDTVDKLDTQNR
B2: NTD_(1-53)-sfGFP R23A (domain or fragment)
chain: MNTRNTRSKQRAPFGVSSSVKPALDLIEQAPNPAYDRHPACITLPERTCRHPL
B3: NTD_(1-53)-sfGFP-His (domain or fragment)
chain: B2 chain with A23R
B4: Rubisco CbbL D99A (complex)
chain 1: B1 chain with D99A
chain 2: T1 sequence
B5: Rubisco CbbL Y72A (complex)
chain 1: B1 chain with Y72A
chain 2: T1 sequence
B6: CsoSCA-MBP (enzyme)
chain: MNTRNTRSKQRAPFGVSSSVKPRLDLIEQAPNPAYDRHPACITLPERTCRHPLTDLEANEQLGRCEDSVKNRFDRVIPFLQVVAGIPLGLDYVTRVQELAQSSLGHTLPEELLKDNWISGHNLKGIFGYATAKALTAATEQFSRKIMSEKDDSASAIGFFLDCGFHAVDISPCADGRLKGLLPYILRLPLTAFTYRKAYAGSMFDIEDDLAQWEKNELRRYREGVPNTADQPTRYLKIAVYHFSTSDPTHSGCAAHGSNDRAALEAALTQLMKFREAVENAHCCGASIDILLIGVDTDTDAIRVHIPDSKGFLNPYRYVDNTVTYAQTLHLAPDEARVIIHEAILNANRSDGWAKGNGVASEGMRRFIGQLLINNLSQIDYVVNRHGGRYPPNDIGHAERYISVGDGFDEVQIRNLAYYAHLDTVEENAIDVDVGIKIFTKLNLSRGLPIPIAIHYRYDPNVPGSRERTVVKARRIYNAIKERFSSLDEQNLLQFRLSVQAQDIGSPIEEVASA

Experiments:
[1] = biological target: the molecule itself; assay: cryo-EM structure
[2] = biological target: T2, Rubisco-strep (H. neapolitanus CbbL8S8) (H. neapolitanus, UniProt O85040 1-473; P45686 1-110); assay: cryo-EM structure
[3] = biological target: T1, CbbS (Rubisco small subunit); assay: cryo-EM structure
[4] = biological target: T2, Rubisco-strep (H. neapolitanus CbbL8S8); assay: BLI
[5] = biological target: T2, Rubisco-strep (H. neapolitanus CbbL8S8); assay: SEC
[6] = biological target: B3; assay: BLI
[7] = biological target: biotinylated Rubisco (H. neapolitanus, UniProt O85040 1-473; P45686 1-110, biotin (subunit and site not stated)); assay: BLI

**Q.** Does B1 bind [1]?
**A.** Result: binds

**Q.** What does the source list for MNTRNTRSKQRAPFGVSSSVKPRLDLIEQAPNPAYDRHPACITLPERTCR [NTD_(1-50) peptide (CsoSCA residue 1-50)]?
**A.** stoichiometry N [2]: 8; binding result [3]: binds

**Q.** Does B2 bind [4]?
**A.** Result: binds

**Q.** Does B3 bind [5]?
**A.** Result: binds

**Q.** How did the “fold increase in KD against wild type” value [6] turn out when B4 was run?
**A.** The value was 10 fold.

**Q.** B5 was tested. Which “fold increase in KD against wild type” value [6] did it give?
**A.** Its value is 10 fold.

**Q.** For B6, which Kd [7] is on record?
**A.** The Kd was 1.2 ± 0.1 nM.
